Legend:
Experiment in all cases: pull-down
His-tagged STX7 (1-236) = biological target: T1, His-tagged STX7 (1-236) (human, UniProt O15400 1-236)
T1 sequence: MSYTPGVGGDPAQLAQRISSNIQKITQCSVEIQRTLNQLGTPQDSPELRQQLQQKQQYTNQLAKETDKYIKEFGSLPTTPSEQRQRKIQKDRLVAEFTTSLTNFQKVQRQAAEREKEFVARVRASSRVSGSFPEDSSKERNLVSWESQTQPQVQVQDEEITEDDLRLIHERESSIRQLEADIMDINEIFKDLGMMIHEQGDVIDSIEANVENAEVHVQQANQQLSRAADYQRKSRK

His-tagged STX8 (1-210) = biological target: T2, His-tagged STX8 (1-210) (human, UniProt Q9UNK0 1-210)
T2 sequence: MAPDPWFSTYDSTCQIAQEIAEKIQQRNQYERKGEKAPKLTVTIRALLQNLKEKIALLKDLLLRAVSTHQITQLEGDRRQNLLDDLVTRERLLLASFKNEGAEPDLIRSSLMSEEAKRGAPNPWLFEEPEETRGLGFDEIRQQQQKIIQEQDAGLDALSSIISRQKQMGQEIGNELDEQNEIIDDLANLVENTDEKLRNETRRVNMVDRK

His-tagged VTI1B (1-204) = biological target: T3, His-tagged VTI1B (1-204) (human, UniProt Q9UEU0 1-204)
T3 sequence: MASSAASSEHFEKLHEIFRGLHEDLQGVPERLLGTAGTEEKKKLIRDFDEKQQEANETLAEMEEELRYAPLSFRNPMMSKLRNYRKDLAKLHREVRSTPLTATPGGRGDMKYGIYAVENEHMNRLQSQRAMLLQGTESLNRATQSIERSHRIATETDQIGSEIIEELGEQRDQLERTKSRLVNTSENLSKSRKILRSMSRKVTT

binding result (His-tagged STX7 (1-236)): binds
binding result (His-tagged STX8 (1-210)): binds
binding result (His-tagged VTI1B (1-204)): binds
B1: GST-tagged VAMP4 (1-115) (domain or fragment)
chain: MPPKFKRHLNDDDVTGSVKSERRNLLEDDSDEEEDFFLRGPSGPRFGPRNDKIKHVQNQVDEVIDVMQENITKVIERGERLDELQDKSESLSDNATAFSNRSKQLRRQMWWRGCK
